# Reference: PMC4137956 (Immunology, 2014)
# T1: C57BL/6 mouse SIRPα, N-terminal domain (d1) (mouse, biotin (on the biotinylation sequence))
# T1 sequence (P97797 whole entry, looked up): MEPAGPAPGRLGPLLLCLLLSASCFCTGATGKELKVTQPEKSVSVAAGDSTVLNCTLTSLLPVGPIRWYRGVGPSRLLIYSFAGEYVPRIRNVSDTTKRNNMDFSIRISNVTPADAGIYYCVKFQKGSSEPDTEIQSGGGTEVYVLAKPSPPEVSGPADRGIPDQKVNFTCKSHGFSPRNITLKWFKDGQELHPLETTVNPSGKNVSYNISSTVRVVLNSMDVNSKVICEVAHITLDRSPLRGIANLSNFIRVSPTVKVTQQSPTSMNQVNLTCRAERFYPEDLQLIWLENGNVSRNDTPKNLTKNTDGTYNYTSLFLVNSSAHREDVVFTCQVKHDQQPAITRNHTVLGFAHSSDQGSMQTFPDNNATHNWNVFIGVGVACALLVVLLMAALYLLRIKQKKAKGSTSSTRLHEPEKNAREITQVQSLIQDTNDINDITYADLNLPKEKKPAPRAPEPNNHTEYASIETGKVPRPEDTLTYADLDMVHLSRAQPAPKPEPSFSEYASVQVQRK
# T2: 129 mouse SIRPα, three extracellular IgSF domains (3d) (mouse, UniProt P97797 32-369, biotin (on the biotinylation sequence))
# T2 sequence (looked up): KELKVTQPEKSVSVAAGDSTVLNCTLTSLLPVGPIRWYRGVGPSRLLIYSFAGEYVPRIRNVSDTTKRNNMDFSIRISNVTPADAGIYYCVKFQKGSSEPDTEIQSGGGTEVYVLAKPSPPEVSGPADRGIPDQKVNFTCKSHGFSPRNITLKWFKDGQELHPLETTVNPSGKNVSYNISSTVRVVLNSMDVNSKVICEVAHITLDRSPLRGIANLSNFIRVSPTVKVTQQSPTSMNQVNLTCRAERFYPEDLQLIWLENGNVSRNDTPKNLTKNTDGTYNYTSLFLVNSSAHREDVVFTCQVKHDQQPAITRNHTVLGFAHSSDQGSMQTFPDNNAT
# B1: mouse CD47 IgSF domain, monomeric recombinant extracellular domain (domain or fragment)
# chain: QLLFSNVNSIEFTSGNETVVIPCIVRNVEAQSTEEMFVKWKLNKSYIFIYDGNKNSTTTDQNFTSAKISVSDLINGIASLKMDKRDAMVGNYTCEVTELSREGKTVIELKNRTVSWFSPNE
# Experiments:
# [1] = biological target: T1, C57BL/6 mouse SIRPα, N-terminal domain …; experiment: SPR; biotinylated SIRPα variants bound to streptavidin immobilised on a BIAcore CM5 chip, BIAcore 3000, 37°; dilutions of monomeric recombinant CD47 extracellular domain passed over; affinity from equilibrium binding; conditions: one partner purified
# [2] = biological target: T2, 129 mouse SIRPα, three extracellular …; experiment: as above; conditions: one partner purified
binder,measurement,setting,value
B1,Kd,[1],5.3 µM
same,Kd,[2],2.5 µM
